The test has as its target canine FcεRIα on the surface of canine mast cell line HMRC cells (canine). The experiment in a line: flow cytometry, FITC-labelled control on canine mast cell line HMRC. (A flow cytometer gives signals particle by particle.)

Among the data in patent US20230192894A1 are median fluorescence intensity values, retold here.

“mouse IgG2b isotype control labeled with FITC (antibody)” had a median fluorescence intensity of 1720.
